Reference: paper PMC10247859, “Replisome-cohesin interactions provided by the Tof1-Csm3 and Mrc1 cohesion establishment factors” (Chromosoma, 2023)

Legend:
[1] = biological target: T1, Smc1 (S. cerevisiae (budding yeast), UniProt P32908 1-1225); experiment: cross-linking; CLMS with sulfo-SDA; cohesin, Tof1-Csm3 and Chl1 with or without Mrc1 at 300-350 nM, 30 °C 5 min, cross-linker 2 h at 4 °C, UV 365 nm; LC-MS/MS, 1% FDR at residue-pair level; two samples merged; details: both partners purified
T1 construct: Smc1, budding yeast; the Smc1 chain of m1; Stood in the cross-linking sample as a chain of cohesin; source: purified as part of cohesin, as previously described (Minamino et al. 2018)
T1 sequence (looked up): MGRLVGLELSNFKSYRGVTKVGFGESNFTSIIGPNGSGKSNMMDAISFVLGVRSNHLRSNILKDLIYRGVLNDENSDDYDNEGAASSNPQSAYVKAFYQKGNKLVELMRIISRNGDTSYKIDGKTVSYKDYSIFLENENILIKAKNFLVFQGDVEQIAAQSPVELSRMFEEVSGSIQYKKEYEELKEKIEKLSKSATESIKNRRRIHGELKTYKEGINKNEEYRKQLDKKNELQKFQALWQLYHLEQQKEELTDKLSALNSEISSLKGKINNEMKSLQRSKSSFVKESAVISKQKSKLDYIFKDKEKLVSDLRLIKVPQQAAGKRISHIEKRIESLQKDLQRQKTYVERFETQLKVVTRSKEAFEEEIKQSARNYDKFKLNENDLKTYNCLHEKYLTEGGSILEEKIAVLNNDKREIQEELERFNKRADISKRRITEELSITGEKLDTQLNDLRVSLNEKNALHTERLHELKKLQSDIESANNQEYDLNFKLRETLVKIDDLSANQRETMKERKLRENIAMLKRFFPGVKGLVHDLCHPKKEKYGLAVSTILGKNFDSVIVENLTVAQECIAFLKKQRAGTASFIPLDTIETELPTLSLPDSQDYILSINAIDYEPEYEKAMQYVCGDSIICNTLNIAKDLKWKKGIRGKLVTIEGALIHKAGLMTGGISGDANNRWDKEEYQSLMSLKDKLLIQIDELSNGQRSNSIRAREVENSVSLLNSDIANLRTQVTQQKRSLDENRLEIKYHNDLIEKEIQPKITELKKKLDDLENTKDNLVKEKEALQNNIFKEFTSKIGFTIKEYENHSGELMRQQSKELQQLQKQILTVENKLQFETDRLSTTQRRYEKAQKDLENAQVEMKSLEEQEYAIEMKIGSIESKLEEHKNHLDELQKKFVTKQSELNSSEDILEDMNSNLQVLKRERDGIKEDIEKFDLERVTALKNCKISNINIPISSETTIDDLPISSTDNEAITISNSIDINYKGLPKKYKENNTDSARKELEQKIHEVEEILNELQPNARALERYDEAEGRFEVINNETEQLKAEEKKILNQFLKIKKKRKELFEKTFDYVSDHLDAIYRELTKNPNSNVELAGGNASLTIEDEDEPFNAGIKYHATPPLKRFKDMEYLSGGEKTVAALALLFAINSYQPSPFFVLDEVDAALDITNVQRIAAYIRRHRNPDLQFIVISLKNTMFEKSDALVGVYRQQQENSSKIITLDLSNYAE

[2] = biological target: T2, Scc3 (S. cerevisiae (budding yeast), UniProt P40541 1-1150); experiment: as above; details: both partners purified
T2 construct: Scc3, budding yeast; the Scc3 chain of m1; Stood in the cross-linking sample as a chain of cohesin; source: purified as part of cohesin, as previously described (Minamino et al. 2018)
T2 sequence (looked up): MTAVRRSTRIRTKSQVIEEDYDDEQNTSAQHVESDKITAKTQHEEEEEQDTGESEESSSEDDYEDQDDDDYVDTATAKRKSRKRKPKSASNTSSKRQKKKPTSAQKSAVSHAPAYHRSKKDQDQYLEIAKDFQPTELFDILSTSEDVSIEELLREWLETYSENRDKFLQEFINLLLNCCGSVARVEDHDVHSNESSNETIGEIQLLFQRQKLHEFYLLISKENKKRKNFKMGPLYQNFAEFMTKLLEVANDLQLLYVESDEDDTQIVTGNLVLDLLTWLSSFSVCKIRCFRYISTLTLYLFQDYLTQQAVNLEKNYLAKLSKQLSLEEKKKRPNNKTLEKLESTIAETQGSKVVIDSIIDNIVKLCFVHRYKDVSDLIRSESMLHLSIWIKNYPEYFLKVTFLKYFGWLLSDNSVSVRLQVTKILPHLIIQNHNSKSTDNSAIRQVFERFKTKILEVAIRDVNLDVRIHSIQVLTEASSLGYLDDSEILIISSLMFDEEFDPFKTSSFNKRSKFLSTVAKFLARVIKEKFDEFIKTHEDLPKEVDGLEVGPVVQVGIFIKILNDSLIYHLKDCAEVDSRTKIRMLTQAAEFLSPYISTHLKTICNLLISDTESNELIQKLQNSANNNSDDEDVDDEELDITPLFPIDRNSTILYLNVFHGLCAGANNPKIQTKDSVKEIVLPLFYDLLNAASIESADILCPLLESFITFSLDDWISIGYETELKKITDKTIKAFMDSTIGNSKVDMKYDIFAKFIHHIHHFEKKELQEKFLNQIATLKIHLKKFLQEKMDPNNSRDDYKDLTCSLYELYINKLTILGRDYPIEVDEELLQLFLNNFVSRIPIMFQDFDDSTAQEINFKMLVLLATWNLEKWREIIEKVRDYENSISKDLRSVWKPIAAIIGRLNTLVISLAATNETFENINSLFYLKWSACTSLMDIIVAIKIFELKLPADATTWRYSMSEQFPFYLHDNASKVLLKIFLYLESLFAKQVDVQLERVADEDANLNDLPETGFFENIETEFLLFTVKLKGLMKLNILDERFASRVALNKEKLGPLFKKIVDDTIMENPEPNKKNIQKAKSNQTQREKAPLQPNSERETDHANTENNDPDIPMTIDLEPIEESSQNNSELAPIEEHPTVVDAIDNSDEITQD

binding result [1]: binds | binding result [2]: binds
B1: Mrc1 (natural protein, S. cerevisiae (budding yeast), UniProt P25588 1-1096, looked up)
chain: MDDALHALSSLTAKKRTTTYKKVAVPILDENDNTNGNGPNDIDNPPELTGNGFLFANATLNRVKNRLEGKKAPEQNHNNGKDRSENSLPTQLISNLYDGGEELEKSEVKDNSYSEKNVSSSFTQTQRIPVSIQQDKVFNVPIHSVNDGKPTQLIKEDGLVNETSQALKTPLTTGRPGATQRIDSSGATSQTQPIKSIEPQSQIITTSSNHSNALSPKIPIIPTELIGTSPLFQSIQNRGPDTQMDVPPQTAHDEDKTQAIGIPQATHQEQKTQIDTVAQTLQDEVPHTLKIREIQSELASEDSKREKARNVEYKKPQKPIPTKKFFSKESFLADFDDSSSNEDDDIKLENAHPKPVQNDDELHENKSVELNLTDETRINEKRVPLLSSYANNLKREIDSSKCITLDLDSDSDEYGDDDMDSIKLSKDESVLPISQLSKATILNLKARLSKQNQKLSQRPNKSKDPKVDHNVLLNTLRKASRKQILDHQKEVIETKGLKLEDMAKEKEIVENLLEQEILRNKRIRQKEKRREKLEENDFQLNAHDSGSDSGSESSGFALSGNEIADYESSGSENDNRRESDSEKEDDEIILKQKKSHHVKHIINESDSDTEVEAKPKEKADESLPKRIAINLGHYGDNIGEDTDKFQETNVLDTQNIEEVMAERNTIENEVKDDVYVNEEADEAIRRQLIDKEKLQLKQKEKEHEAKIKELKKRGVTNFFEMEAEESEDEWHGIGGADGEGSDDYDSDLEKMIDDYSKNNFNPHEIREMLAAENKEMDIKMINKILYDIKNGGFRNKRAKNSLELELSDDDEDDVLQQYRLKRRELMRKRRLEIGDDAKLVKNPKSSAFFESMVEDIIEYKNPFGAEEEYNLDITSTATDLDTQDNSINVGDNTGNNEQKPVDQKNKKVIISEDFVQKSLSFLKSNNYEDFETDKELSRIQHGNDEAIEDLYTLKQNSSIKSFTNSQTDSTTSKTVNTIIDLEKRPEDEDEVENGDTSLVGVFKHPSIIKSFASRTDINDKFKEGNKTVKILKSYKTVGSSKASITYMGKTRKLIAPKRKTEGSHRYHHDHHNKKMKMKTKTKSNKLFESGQDSFDN
notes: Mrc1, budding yeast; also called Flag-tagged Mrc1; source: purified as previously described (Yeeles et al. 2017)
